Laboratory results published in US8394929B2, “Nogo receptor-mediated blockade of axonal growth” (Yale University, priority 2000, dated 2013).

What was measured:
wtNgR = target: T1, wtNgR (Mus musculus, UniProt Q99PI8); experiment: AP-NgR binding to COS-7 cells transfected with wtNgR
T1 construct: wtNgR encodes residues 1 to 473 of mNgR; vector secretion signal (pSecTag2) (N); 6xHis (C); expressed in transfected cells; host or cells: COS-7
T1 sequence (Q99PI8 27-473): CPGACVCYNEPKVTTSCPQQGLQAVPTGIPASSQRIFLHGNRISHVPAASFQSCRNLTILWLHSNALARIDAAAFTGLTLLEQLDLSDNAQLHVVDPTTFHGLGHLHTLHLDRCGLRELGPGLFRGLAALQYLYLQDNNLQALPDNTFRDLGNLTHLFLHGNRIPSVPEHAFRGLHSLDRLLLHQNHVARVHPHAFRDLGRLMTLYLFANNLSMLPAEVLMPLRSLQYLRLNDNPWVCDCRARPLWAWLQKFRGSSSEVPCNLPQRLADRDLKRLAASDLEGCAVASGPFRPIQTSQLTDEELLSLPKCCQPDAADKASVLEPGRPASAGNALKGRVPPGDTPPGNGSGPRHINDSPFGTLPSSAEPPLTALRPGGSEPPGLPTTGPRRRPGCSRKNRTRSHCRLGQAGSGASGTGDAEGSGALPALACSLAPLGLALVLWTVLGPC
Description: (§1) A vector encoding AP-hNogo-A (1055-1120) was constructed as described in Fournier et al., supra). The vector encoding AP-NgR was made by ligating the mNgR coding sequence from residues 27-451 in frame with the signal sequence-6× His—placental alkaline phosphatase (AP) sequence of the vector known as pAP-6 (Nakamura et al., Neuron 2: 1093-1100, 1988).
(§2) NgR was tested for the ability to self-associate. For this study, mNgR [hereinafter, wtNgR or WT] and mNgR deletion mutants (see FIG. 18A) were transfected into COS-7 cells. Forty-eight hours after the transfection, the transfected COS-7 cells were washed with HBH. Cells were then incubated for 2 hours at 23° C. with a conditioned medium containing […] diluted in HBH. AP-fusion protein was detected as previously described for AP-Sema3A (Takahashi et al., Nature Neurosci. 1:487-493, 1998). Similar to the AP-Nogo binding profile, AP-NgR bound to wtNgR and NgRΔCT (FIG. 23). Nogo treatment had little, if any, effect on the NgR-NgR interaction (data not shown). […] The same NgR domains are required for GST-hNogo-A (1055-1120) binding and NgR oligomerization

NgR deletion mutants = experiment: AP-NgR binding to COS-7 cells transfected with other NgR deletion mutants; parameters: species or system mouse
Description: as §1, §2

NgRΔCT = target: T2, NgRΔCT (Mus musculus, UniProt Q99PI8); experiment: AP-NgR binding to COS-7 cells transfected with NgRΔCT
T2 construct: encodes residues 26 to 305 and 443 to473 of mNgR; vector secretion signal (pSecTag2) (N); 6xHis (C); expressed in transfected cells; host or cells: COS-7
T2 sequence (Q99PI8 with tags, fused parts or gaps): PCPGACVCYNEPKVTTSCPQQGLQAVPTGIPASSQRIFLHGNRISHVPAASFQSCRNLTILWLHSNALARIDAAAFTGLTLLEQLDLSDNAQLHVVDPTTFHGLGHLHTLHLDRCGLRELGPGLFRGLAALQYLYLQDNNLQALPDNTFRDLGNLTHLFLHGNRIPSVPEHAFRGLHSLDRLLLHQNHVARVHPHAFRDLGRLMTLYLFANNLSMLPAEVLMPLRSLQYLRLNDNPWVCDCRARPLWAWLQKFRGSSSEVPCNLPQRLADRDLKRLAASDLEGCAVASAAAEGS
Description: as §1, §2

B1: AP-NgR: mNgR residues 27-451 fused to signal sequence-6x His-placental alkaline phosphatase (protein)
chain: HHHHHHIIPVEEENPDFWNREAAEALGAAKKLQPAQTAAKNLIIFLGDGMGVSTVTAARILKGQKKDKLGPEIPLAMDRFPYVALSKTYNVDKHVPDSGATATAYLCGVKGNFQTIGLSAAARFNQCNTTRGNEVISVMNRAKKAGKSVGVVTTTRVQHASPAGTYAHTVNRNWYSDADVPASARQEGCQDIATQLISNMDIDVILGGGRKYMFRMGTPDPEYPDDYSQGGTRLDGKNLVQEWLAKRQGARYVWNRTELMQASLDPSVTHLMGLFEPGDMKYEIHRDSTLDPSLMEMTEAALRLLSRNPRGFFLFVEGGRIDHGHHESRAYRALTETIMFDDAIERAGQLTSEEDTLSLVTADHSHVFSFGGYPLRGSSIFGLAPGKARDRKAYTVLLYGNGPGYVLKDGARPDVTESESGSPEYRQQSAVPLDEETHAGEDVAVFARGPQAHLVHGVQEQTFIAHVMAFAACLEPYTACDLAPPAGTTDAAHPGCPGACVCYNEPKVTTSCPQQGLQAVPTGIPASSQRIFLHGNRISHVPAASFQSCRNLTILWLHSNALARIDAAAFTGLTLLEQLDLSDNAQLHVVDPTTFHGLGHLHTLHLDRCGLRELGPGLFRGLAALQYLYLQDNNLQALPDNTFRDLGNLTHLFLHGNRIPSVPEHAFRGLHSLDRLLLHQNHVARVHPHAFRDLGRLMTLYLFANNLSMLPAEVLMPLRSLQYLRLNDNPWVCDCRARPLWAWLQKFRGSSSEVPCNLPQRLADRDLKRLAASDLEGCAVASGPFRPIQTSQLTDEELLSLPKCCQPDAADKASVLEPGRPASAGNALKGRVPPGDTPPGNGSGPRHINDSPFGTLPSSAEPPLTALRPGGSEPPGLPTTGPRRRPGCSRKNRTRSHCRLGQAGSGASGTGDAEGSGALP
For B1, the “binding (in words)” value (wtNgR) was “bound”, the “binding (in words)” value (NgR deletion mutants) was “did not bind” and the “binding (in words)” value (NgRΔCT) was “bound”.
